Reference: PMC5397419

Biological target: T1, DnaA wild-type (Escherichia coli) (UniProt P03004)
T1 sequence: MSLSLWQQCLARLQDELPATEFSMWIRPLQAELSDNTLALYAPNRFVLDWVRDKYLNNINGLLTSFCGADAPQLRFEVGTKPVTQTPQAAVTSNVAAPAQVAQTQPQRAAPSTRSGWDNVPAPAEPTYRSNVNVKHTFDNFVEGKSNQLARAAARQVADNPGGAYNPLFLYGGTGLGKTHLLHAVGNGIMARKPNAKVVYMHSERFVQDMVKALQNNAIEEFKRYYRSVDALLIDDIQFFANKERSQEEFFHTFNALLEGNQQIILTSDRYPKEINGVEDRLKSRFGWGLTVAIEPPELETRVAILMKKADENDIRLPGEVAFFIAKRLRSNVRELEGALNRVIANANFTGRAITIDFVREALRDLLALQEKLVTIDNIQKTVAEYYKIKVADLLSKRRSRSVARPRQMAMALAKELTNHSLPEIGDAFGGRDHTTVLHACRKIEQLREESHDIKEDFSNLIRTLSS
Assay: EMSA
Settings: EMSA oriC/PdnaA: 20 mM HEPES-KOH pH 8.0, 5 mM Mg acetate, 1 mM EDTA, 4 mM DTT, 0.2% Triton X-100, 5% glycerol, 0.5 mg/ml BSA, 2 mM ATP, 20 C; DARS1: 20 mM …

Sequence: GGGGATAGGGGCTGGAGACAGTTATCCACTATTCCTGTGGATAACCATGTGTATTAGAGTTAGAAAACACGAGGCAAGCGAGAGAATACGCGGCTTGCACG (double strand) [DARS1]
- binding: binds
